Where two headings read alike, the source gives them in different places.
Columns and labels:
DRH-3 CTD [1] = molecular target: T1, DRH-3 CTD (Caenorhabditis elegans, UniProt Q93413 940-1108); test: crystal structure
T1 sequence: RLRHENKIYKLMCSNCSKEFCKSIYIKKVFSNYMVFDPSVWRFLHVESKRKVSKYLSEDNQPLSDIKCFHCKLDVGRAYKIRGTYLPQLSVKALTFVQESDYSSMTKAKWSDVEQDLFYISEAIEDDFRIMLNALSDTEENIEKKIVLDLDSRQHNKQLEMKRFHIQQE

RIG-I CTD [2] = molecular target: T2, RIG-I CTD (human, UniProt O95786 802-925); test: limited trypsin proteolysis protection
T2 sequence: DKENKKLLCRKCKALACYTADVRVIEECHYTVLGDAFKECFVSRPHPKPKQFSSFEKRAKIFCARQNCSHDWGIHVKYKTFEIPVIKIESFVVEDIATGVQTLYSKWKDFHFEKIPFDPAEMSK

DRH-3 CTD [3] = molecular target: T1, DRH-3 CTD; test: fluorescence polarization
DRH-3 full length = molecular target: T3, DRH-3 full length (Caenorhabditis elegans, UniProt Q93413 1-1119); test: HDX-MS
T3 sequence: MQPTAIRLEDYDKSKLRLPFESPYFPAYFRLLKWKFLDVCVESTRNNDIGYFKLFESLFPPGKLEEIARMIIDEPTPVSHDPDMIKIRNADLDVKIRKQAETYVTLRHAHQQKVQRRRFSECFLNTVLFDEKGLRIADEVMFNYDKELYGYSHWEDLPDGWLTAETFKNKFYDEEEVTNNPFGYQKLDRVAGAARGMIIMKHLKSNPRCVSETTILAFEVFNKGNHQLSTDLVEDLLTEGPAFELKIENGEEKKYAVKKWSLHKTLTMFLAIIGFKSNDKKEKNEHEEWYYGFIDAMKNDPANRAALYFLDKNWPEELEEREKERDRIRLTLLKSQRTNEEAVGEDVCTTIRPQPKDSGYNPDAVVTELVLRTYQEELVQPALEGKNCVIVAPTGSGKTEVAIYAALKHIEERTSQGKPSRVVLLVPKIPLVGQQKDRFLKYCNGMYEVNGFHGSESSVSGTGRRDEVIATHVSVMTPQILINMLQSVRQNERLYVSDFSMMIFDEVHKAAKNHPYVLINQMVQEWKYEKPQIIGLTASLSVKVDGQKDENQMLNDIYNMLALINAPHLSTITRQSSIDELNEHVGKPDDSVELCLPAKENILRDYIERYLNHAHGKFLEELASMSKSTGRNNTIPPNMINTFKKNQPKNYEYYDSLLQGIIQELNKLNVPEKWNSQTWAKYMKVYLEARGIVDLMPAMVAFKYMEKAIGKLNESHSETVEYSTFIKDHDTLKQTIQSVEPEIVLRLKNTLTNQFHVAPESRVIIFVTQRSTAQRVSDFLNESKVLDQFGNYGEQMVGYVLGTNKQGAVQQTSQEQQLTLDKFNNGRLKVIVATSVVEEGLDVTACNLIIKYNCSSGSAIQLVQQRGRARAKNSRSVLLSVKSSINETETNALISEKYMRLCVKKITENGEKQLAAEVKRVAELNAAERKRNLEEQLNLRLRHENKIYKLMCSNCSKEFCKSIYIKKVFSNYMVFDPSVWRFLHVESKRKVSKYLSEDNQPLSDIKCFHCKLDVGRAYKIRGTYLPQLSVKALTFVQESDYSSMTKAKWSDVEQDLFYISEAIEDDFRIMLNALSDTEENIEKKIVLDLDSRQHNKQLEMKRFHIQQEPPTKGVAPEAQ

RIG-I CTD [4] = molecular target: T2, RIG-I CTD; test: limited trypsin proteolysis protection; remark: listed apart in the source

B1: 5'-ppp 12-mer dsRNA (dsRNA)
RNA 1: GGCGCGCGCGCC
RNA 2: GGCGCGCGCGCC
modifications: 5'-triphosphate
**Q.** Does B1 bind (DRH-3 CTD [1])?
**A.** binds

**Q.** Does B1 bind (RIG-I CTD [2])?
**A.** binds

B2: FAM-labelled 5'-OH 18-mer hairpin RNA (structured_RNA)
RNA: UUUAUAUAUUAGGACCGCUCGGCGGUCCUAAUAUAUAAA
modifications: 5'-OH
**Q.** B2 was tested. Which Kd (DRH-3 CTD [3]) did it give?
**A.** 325 ± 70.1 nM

B3: 3p10L (SLR10) (structured_RNA)
RNA: GGACGUACGUUUCGACGUACGUCC
modifications: 5'-triphosphate
**Q.** Does B3 bind (DRH-3 full length)?
**A.** binds

B4: 5'-ppp 8-mer ssRNA (ssRNA)
RNA: GGCCGCCC
modifications: 5'-triphosphate
**Q.** Does B4 bind (DRH-3 CTD [1])?
**A.** binds

B5: 5'-ppp 12-mer dsRNA with 3'-overhang (dsRNA)
RNA 1: GGCGCGCGCGCCC
RNA 2: GGCGCGCGCGCCC
modifications: 5'-triphosphate
**Q.** Does B5 bind (RIG-I CTD [4])?
**A.** binds

Source: doi:10.1101/2021.03.14.433363
